Data reported in US20060134122A1, “Peptides of syndecan-1 for inhibition of cancer” (priority 2004, published 2006).

Experiments:
[1] = target: αvβ3 integrin (human, on MDA-MB-231, MDA-MB-435, HAEC and HMEC cells) (human) (UniProt P06756); assay: cell-based or functional assay
[2] = tested on: MCF-7 human carcinoma cells; assay: Cell spreading assay, MCF-7; format: cell-based; conditions: 10 μg/mL VN, 2 h; LM609 30 μg/mL; mAb 13 25 μg/mL; GST-mS1ED 20 μM
Description: FIG. 3—MDA-MB-435, but not MCF-7, human carcinoma cells display functional coupling of Sdc-1 and αvβ3 integrins on VN. Depicted are phalloidin-stained cells 2 h after plating on wells coated with 10 μg/mL VN (upper half) or FN (lower half) in plating medium alone or medium containing either 30 μg/mL mAb LM609, 25 μg/mL mAb 13, 20 μM GST-mS1ED or -mS4ED. Bar, 50 μm.
MDA-MB-435, but not MCF-7, human carcinoma cells display functional coupling of Sdc-1 and αvβ3 integrin on VN. To test whether activation of αvβ3 integrin activation on matrix is also functionally coupled to Sdc-1, MDA-MB-435 and MCF-7 cells were plated on either VN or FN (FIG. 3). MDA-MB-435 cells spread on VN and require αvβ3 integrins for this activity as spreading is blocked by mAb LM609. Although the MCF-7 cells spread on VN, this spreading is unaffected by LM609; these cells rely instead on αvβ1 integrins as spreading is blocked by either mAb 13 (FIG. 3) or αv-specific mAb M9 (unpublished data; de Vries et al., 1986). Neither cell type utilizes αvβ3 to respond to FN, rather both utilize […] that are blocked by either mAb 13 (FIG. 3) or mAb 16 (unpublished data).
To test whether GST-mS1ED specifically blocks αvβ3 integrin-dependent spreading or acts as a general inhibitor to all αv integrin heterodimers, MDA-MB-435 and MCF-7 cells were plated on VN in the presence of 20 μM GST-mS1ED. […]

[3] = target: T1, αvβ3 integrin (Homo sapiens, UniProt P05106+P06756); assay: WOW1 Fab binding (activated αvβ3 integrin), MDA-MB-435; format: cell-based; conditions: cells adherent to mAb B-B4; 20 μM GST-mS1ED
T1 construct: endogenous in cells; host or cells: MDA-MB-435 (A4) and MDA-MB-231 (A5) human mammary carcinoma cells
Description: (§1) FIGS. 2A-C—Sdc-1 adhesion-mediated cell spreading correlates with αvβ3 integrin. expression and activity. (FIG. 2A) FACS analysis of αvβ3 integrin expression (mAb LM609) in human mammary carcinoma cells against an IgG isotype control. (FIG. 2B) Depicted on split panels are phalloidin-stained MDA-MB-435 (upper half) and MCF-7 (lower half) cells 2 h after plating on wells coated with mAb B-B4 in plating medium alone or medium containing either 30 μg/mL mAb LM609, 1 μg/mL mAb 13 or 20 μM GST-mS1ED. Bar, 50 μm. (FIG. 2C) Untreated MDA-MB-435, MDA-MB-231 and MCF-7 cells (columns 1 and 4) and cells pretreated in suspension with 1 μg/mL mAb 13 (columns 2 and 3) were seeded on wells coated with either mAb B-B4 or COL I in plating medium alone (columns 1, 2 and 4) or medium containing 20 μM GST-mS1ED (column 3). Cells were incubated at 37° C. for 2 h, fixed, permeabilized and stained with WOW1 and an Alexa 488-conjugated secondary. Panel insets are corresponding phase contrast pictures. Bar, 20 μm.
(§2) To verify that cell spreading induced upon Sdc-1 ligation correlates with αvβ3activation, the inventors relied upon binding of the ligand-mimetic WOW1 mouse Fab—a probe that detects activated, but unligated αvβ3 integrin. MDA-MB-435 cells adherent to mAb B-B4 display strong binding of WOW1 both centrally and within puncta at the spreading margin of cells (FIG. 2C). […]

[4] = target: T1, αvβ3 integrin; assay: WOW1 Fab binding (activated αvβ3 integrin), MDA-MB-231; format: cell-based; conditions: cells adherent to mAb B-B4, pre-treated with 1 μg/mL mAb 13; GST-mS1ED 20 μM
Description: as §1, §2

[5] = tested on: MCF-7 cells; assay: Migration across coated filters (modified Boyden chamber), MCF-7; format: cell-based, human; conditions: S1ED pAb 250 μg/mL or GST-mS1ED 20 μM; 16 h
Description: FIGS. 5A-B—Sdc-1ED Inhibitors disrupt αvβ3 integrin-dependent cell migration on VN. MDA-MB-231, MDA-MB-435 and MCF-7 cells in plating medium alone (black-filled) or in plating medium containing either 20 μM GST-mS1ED (open) or 250 μg/mL polyclonal mS1ED antibodies (gray-filled) were seeded on polycarbonate filters coated with either 10 μg/ml of VN (FIG. 5A) or FN (FIG. 5B) in a modified Boyden chamber. After 16 h, cells that migrated through the filter in response to 10% FBS in the lower chamber were quantified by colorimetric staining.
To test the role of the S1ED in αvβ3 integrin dependent signaling in another functional assay, cells were examined for their ability to migrate across VN or FN-coated filters in the presence or absence of S1ED pAb (250 μg/mL) or GST-mS1ED recombinant protein (20 μM). Migration of treated MDA-MB-231 and MB-435 cells across VN is suppressed 2- to 4-fold relative to untreated controls (FIG. 5A). MCF-7 cell migration across VN, which is αvβ1 dependent, is unaffected by either treatment.

[6] = tested on: MDA-MB-231 human mammary carcinoma cells; conditions: no integrin ligand; Beauvais and Rapraeger, 2003; cited from earlier work

Chain of αvβ3 integrin (human, on MDA-MB-231, MDA-MB-435, HAEC and HMEC cells) (human) (P06756 31-1048, chain 1 of 2): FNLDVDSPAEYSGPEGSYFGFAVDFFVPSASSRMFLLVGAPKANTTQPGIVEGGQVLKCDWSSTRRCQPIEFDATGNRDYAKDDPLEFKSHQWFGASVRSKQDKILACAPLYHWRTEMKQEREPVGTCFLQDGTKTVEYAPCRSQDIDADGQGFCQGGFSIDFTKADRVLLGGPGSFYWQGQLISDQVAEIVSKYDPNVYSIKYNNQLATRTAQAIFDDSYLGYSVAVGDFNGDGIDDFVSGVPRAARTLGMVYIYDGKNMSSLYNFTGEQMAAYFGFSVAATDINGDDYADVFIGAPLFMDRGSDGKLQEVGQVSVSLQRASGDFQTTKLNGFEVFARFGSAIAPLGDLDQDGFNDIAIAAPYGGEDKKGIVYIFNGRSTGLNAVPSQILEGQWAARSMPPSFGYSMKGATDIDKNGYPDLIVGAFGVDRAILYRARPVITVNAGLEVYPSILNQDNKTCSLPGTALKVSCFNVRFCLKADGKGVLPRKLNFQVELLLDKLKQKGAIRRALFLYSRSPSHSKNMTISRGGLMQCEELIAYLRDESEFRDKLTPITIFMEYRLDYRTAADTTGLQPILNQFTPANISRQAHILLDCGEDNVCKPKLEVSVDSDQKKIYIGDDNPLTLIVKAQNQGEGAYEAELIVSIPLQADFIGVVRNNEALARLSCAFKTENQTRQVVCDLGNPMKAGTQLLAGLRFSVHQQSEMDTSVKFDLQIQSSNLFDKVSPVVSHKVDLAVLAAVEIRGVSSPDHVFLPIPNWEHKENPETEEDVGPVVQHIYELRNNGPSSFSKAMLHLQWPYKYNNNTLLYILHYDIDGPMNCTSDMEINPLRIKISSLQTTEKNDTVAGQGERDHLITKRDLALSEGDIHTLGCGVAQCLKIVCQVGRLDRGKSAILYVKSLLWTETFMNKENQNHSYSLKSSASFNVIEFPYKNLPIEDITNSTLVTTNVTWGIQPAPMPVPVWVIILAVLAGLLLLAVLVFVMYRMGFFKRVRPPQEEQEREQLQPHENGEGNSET
Chain of αvβ3 integrin (human, on MDA-MB-231, MDA-MB-435, HAEC and HMEC cells) (human) (P05106 27-788, chain 2 of 2, further chain): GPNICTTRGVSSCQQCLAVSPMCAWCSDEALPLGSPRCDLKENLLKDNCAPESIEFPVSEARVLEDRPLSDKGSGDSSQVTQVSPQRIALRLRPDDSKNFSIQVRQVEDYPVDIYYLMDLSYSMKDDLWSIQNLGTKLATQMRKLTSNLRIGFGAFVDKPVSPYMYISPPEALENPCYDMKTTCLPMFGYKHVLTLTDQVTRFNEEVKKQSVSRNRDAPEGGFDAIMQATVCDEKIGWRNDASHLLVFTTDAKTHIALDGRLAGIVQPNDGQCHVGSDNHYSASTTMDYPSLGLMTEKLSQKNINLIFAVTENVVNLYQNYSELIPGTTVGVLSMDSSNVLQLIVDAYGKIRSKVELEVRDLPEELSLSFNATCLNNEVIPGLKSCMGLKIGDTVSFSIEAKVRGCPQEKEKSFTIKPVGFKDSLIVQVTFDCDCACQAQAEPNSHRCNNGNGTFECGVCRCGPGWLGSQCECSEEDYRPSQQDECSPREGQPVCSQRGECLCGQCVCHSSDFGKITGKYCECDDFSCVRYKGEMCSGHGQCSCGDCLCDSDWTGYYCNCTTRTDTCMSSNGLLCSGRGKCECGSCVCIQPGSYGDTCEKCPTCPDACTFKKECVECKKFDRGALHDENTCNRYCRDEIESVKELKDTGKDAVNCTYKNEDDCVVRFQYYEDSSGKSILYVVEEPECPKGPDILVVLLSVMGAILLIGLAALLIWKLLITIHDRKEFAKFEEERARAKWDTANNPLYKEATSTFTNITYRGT
T1 sequence (P06756 31-889 limits assumed): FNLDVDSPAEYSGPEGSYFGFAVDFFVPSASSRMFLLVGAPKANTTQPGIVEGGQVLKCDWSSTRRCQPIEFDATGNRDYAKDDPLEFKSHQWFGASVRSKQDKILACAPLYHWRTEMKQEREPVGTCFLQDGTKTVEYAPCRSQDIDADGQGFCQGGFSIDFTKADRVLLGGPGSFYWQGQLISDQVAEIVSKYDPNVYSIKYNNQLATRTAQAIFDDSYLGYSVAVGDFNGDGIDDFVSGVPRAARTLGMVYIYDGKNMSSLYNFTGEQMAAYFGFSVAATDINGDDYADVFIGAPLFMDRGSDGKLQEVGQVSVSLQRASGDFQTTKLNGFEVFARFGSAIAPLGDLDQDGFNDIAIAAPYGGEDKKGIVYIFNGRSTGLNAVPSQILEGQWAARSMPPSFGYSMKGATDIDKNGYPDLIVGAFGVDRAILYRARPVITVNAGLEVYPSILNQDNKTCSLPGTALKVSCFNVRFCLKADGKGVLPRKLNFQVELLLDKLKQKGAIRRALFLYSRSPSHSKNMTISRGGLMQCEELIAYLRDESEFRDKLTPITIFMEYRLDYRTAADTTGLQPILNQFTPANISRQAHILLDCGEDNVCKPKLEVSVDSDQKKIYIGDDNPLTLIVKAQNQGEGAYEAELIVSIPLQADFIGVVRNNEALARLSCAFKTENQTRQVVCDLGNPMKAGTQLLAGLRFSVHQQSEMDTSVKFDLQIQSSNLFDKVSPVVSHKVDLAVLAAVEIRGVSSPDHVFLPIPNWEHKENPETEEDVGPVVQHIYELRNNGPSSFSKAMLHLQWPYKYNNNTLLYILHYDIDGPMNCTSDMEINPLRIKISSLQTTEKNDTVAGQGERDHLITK
T1 sequence (P06756 891-1048 limits assumed): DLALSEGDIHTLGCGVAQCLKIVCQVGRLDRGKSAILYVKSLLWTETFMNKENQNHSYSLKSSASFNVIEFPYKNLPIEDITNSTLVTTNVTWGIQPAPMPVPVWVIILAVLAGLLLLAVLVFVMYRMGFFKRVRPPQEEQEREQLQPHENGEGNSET
T1 sequence (P05106 27-788): as the sequence (P05106 27-788, chain 2 of 2, further chain) above

B1: GST-mS1ED: recombinant mouse syndecan-1 ectodomain expressed as a fusion protein with GST (protein)
chain: QIVAVNVPPEDQDGSGDDSDNFSGSGTGALPDTLSRQTPSTWKDVWLLTATPTAPEPTSSNTETAFTSVLPAGEKPEEGEPVLHVEAEPGFTARDKEKEVTTRPRETVQLPITQRASTVRVTTAQAAVTSHPHGGMQPGLHETSAPTAPGQPDHQPPRVEGGGTSVIKEVVEDGTANQLPAGEGSGEQDFTFETSGENTAVAAVEPGLRNQPPVDEGATGASQSLLDRKEVLG
modifications: left off: a dimerising Fc or GST
notes: recombinant mouse syndecan-1 ectodomain expressed as a fusion protein with GST
migration of MDA-MB-231 and MB-435 cells across VN, 20 µM GST-mS1ED [1]: 2 to 4 fold
cell spreading on VN [2]: Only the MDA-MB-435 cells fail to spread
WOW1 binding (αvβ3 activation) [3]: WOW1 fails to bind
WOW1 binding (αvβ3 activation) [4]: WOW1 staining is also lost
cell migration across FN [5]: neither inhibitor has any effect
cell migration across VN [5]: unaffected
collaboration between Sdc-1 and αvβ3 integrins in cells adherent to Sdc-1-specific antibody [6]: disrupted
